We go through eight molecules from patent US20060210655A1, “Bioactive compositions, natural methods of producing them and computational methods for designing natural production processes” (priority 2004, published 2006).

Test [1] deals with T1, Y2-GPCR (Homo sapiens, UniProt P49146).
T1 sequence (P49146 1-381): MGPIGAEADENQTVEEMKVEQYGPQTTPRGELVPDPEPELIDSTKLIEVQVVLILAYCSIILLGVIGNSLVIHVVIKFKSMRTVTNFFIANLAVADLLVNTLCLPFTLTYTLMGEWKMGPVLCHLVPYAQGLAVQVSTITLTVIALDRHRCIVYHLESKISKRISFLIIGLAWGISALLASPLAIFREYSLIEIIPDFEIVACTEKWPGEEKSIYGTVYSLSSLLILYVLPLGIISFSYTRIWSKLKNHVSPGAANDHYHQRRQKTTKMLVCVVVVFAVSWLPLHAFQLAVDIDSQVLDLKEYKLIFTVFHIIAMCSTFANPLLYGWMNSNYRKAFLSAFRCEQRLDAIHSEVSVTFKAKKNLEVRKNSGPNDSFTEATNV
The experiment in a line: competitive binding assay against PYY22-36 on Y2-GPCR. The method, then: The peptides derived from the proteins AtRGP2, OsRGP1 and OsBiP were synthesized in 5 mg quantities at and purified to a purity of above about 90%. The peptides were tested in a competitive binding assay against PYY^22-36 for binding to the GPCR receptor.
In-vitro receptor-based screening of receptor subtypes Y1, Y2, and Y3 was performed according to protocols known in the art. (Munoz et al., Mol. Cell. Endocrinol. 107, 77 (1995), Fuhlendorf et al., PNAS 87, 182 (1990)) Screening of OsBiP, ZMRGP1 and AtRGP1 was conducted on Y2-GPCR as described above using known methods and activity was measured as the percentage of inhibition of binding of the endogenous ligand PYY^22-36 sequence. The PYY^22-36 sequence was used as a positive control. Of the peptides tested, the one derived from AtRGP1 protein was able to inhibit binding of PYY^22-36 by 20-40% when 10 μM concentration of both the PYY^22-36 and […] peptide were used in the binding assay. […] In vivo tissue-based screening on cultures of rat colon cells can be carried out according to known protocols, such as described in Dumont et al., Eur. J. Pharmacol. 238, 37 (1993).

The target of test [2] is T2, CCK-B receptor (Homo sapiens, UniProt P32239).
T2 sequence (P32239 1-447): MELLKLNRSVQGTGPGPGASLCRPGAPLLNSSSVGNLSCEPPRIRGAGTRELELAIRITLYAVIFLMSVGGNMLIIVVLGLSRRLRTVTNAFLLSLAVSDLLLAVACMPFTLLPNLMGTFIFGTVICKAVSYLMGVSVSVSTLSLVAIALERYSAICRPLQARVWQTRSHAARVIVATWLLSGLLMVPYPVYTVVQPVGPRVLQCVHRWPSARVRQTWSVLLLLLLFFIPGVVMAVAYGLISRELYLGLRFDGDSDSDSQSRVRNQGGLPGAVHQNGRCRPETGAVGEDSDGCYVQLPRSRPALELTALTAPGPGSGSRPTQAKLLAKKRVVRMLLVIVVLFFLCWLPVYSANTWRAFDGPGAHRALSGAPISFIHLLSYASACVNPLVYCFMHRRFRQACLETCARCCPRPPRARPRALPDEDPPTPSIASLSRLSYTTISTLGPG
The test is described as follows: competitive binding assay against CCK-8 for binding to the CCK-B GPCR receptor. Particulars: for inhibition of binding of the ligand CCK-8 to CCK-B receptor: synthetic peptides, 10 μM concentration; for inhibition of CCK-8 binding to the CCK-B receptor: peptides purified from trypsin hydrolysate, 10 μM. The method, then:
Oryzacystatin is a cystein proteinase inhibitor protein. […] The peptides […], PWMDFK and […] were synthesized in 5 mg quantities and purified to a purity of above about 90%. The peptides were tested in a competitive binding assay against CCK-8 for binding to the CCK-B GPCR receptor.
In-vitro receptor-based screening of receptor subtypes CCK-A and CCK-B was performed according to protocols known in the art. The binding activity of peptides […], PWMDFK and […] on CCK-A and CCK-B GPCR was measured as the percentage of inhibition of binding of the endogenous ligand CCK-8 sequence. The CCK-8 sequence was used as a positive control in this assay. […] None of the peptides tested activated CCK-A receptor at concentrations as high as 10 μM, probably due to the lack of sulfonation, a chemical modification required for agonizing the CCK-A receptor.
Hydrolysates were generated from the recombinantly expressed and purified oryzacystatin protein which was isolated from Oryza sativa. Trypsin was used to hydrolyze 10 mg of each sample using standard conditions. […] Again the hydrolysate and the two purified peptides were submitted to receptor-based screening. The hydrolysate itself inhibited CCK-8 binding to the CCK-B receptor by 21% at a 100 μM hydrolysate concentration, while the purified peptides, […] and PWMDFK, inhibited CCK-8 binding by 16%, and 14% at a 10 μM concentrations.
A final optimization of the hydrolysis by the combined consecutive action of trypsin and limited carboxypeptidase digestion was carried out with the goal of obtaining the peptides […] and PWMDF, resulting from the removal of the C-terminal lysine residue.

For test [3] the following is noted: obese or nonobese subjects, cited from earlier work.
Test [4] deals with T3, Y2 G-protein-coupled receptor.
T3 sequence (P49146 whole entry, species assumed, looked up): T1 sequence (P49146 1-381)
The experiment in a line: competitive receptor binding assay on Y2-GPCR against PYY22-36, both peptides at 10 µM.

Test [5] concerns the target T4, CCK-B GPCR receptor (Homo sapiens (Human)) (UniProt P32239).
T4 sequence: T2 sequence (P32239 1-447)
The test is described as follows: competitive receptor binding assay against CCK-8 on CCK-B receptor, synthetic peptide at 10 µM.

Regarding “FDGVDFSEPLTRARF (listed as Oryza sativa) [OsBIP]”, the “binding to the Y2 receptor” value in test [1] (qualitative) is “shown to bind the Y2 receptor”.
Consider “YSCRYFGYLVSKKKY (listed as Arabidopsis thaliana) [AtRGP1, peptide derived from Arabidopsis thaliana amylogenin protein RGP]”, for which the “percentage of inhibition of binding of PYY22-36” value in test [1] (Y2-GPCR, 10 μM concentration of both PYY22-36 and peptide) is 20-40%.
“PWMDFKELQEFK (listed as Oryza sativa) [Oryza sativa oryzacystatin fragment, trypsin]”: the “inhibition of binding of the ligand CCK-8 to CCK-B receptor” value (“inhibition of binding … to CCK-B receptor” for short) in test [2] came to 5%.
For “VWEKPWMDFK (listed as Oryza sativa) [Oryza sativa oryzacystatin fragment, trypsin]”, in test [2], the “inhibition of CCK-8 binding to the CCK-B receptor” value worked out at 16% and the “inhibition of binding … to CCK-B receptor” value is 27%.
As for “PWMDFK (listed as Oryza sativa) [Oryza sativa oryzacystatin fragment, trypsin]”, in test [2], the “inhibition of CCK-8 binding to the CCK-B receptor” value is on record as 14% and the “inhibition of binding … to CCK-B receptor” value was 16%.
In the case of “PYY: natural hormone produced by endocrine L-cells in the gut; agonist of Y2 receptors”, the “cumulative 24-hour caloric intake” value in test [3] (after 90-minute intravenous infusion) is “significant decrease”. In test [3] (two hours after a 90-minute intravenous infusion), the “reduction of caloric intake” value was 30%.
For the molecule YSCRYFGYLVSKKKY [AtRGP2 peptide fragment], in test [4], the % inhibition of binding of PYY22-36 was in the range of 20 to 40%.
As for PWMDFKELQEFK [Oryza sativa oryzacystatin hydrolyzed with trypsin - synthetic peptide 3], in test [5], the % inhibition of binding of CCK-8 came out at 5%.
